Legend:
[1] = system: S1: Biotin-CGPVGLIGK(Cy7)eGvndneeGffsar-NH2
[2] = system: DMNPE-veiled C1-NPs (STREAMs)
[3] = system: S3: Biotin-CGPLGVRGKK(Cy7)eGvndneeGffsar-NH2
[4] = system: C1-NPs: fluorescein-conjugated MMP substrate peptide C1 (FAM-sk-PLGLEEA-GC) coupled to iron oxide nanoparticles
[5] = system: S2: Biotin-CGPVPLSLVMK(Cy7)eGvndneeGffsar-NH2
Sequence of S2: Biotin-CGPVPLSLVMK(Cy7)eGvndneeGffsar-NH2 (chain, as listed by the source): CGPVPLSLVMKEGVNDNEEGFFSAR

Sequence of recombinant MMP9 (chain, as listed by the source): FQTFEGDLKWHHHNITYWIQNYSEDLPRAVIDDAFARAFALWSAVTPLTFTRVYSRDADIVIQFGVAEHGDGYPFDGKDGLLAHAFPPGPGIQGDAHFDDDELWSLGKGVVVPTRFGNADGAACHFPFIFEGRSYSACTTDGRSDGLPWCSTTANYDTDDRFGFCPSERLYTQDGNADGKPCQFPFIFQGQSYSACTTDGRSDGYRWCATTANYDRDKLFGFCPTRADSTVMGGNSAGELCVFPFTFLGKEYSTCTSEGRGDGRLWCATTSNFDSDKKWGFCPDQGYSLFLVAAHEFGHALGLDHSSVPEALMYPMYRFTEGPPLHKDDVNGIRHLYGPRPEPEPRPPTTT
Sequence of recombinant MMP2 (chain, as listed by the source): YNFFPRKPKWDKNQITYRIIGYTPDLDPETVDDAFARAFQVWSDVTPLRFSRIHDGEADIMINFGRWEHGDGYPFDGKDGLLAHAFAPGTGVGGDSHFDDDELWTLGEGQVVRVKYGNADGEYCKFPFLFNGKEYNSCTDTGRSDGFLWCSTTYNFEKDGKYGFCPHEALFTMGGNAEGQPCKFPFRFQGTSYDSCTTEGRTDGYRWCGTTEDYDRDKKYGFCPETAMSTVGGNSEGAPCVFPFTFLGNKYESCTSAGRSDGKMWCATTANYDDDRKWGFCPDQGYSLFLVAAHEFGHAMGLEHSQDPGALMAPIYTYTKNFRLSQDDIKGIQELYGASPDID
Sequence of S1: Biotin-CGPVGLIGK(Cy7)eGvndneeGffsar-NH2 (chain, as listed by the source): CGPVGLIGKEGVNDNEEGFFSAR
Sequence of S3: Biotin-CGPLGVRGKK(Cy7)eGvndneeGffsar-NH2 (chain, as listed by the source): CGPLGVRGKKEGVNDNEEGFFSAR
Sequence of recombinant MMP19 (chain, as listed by the source): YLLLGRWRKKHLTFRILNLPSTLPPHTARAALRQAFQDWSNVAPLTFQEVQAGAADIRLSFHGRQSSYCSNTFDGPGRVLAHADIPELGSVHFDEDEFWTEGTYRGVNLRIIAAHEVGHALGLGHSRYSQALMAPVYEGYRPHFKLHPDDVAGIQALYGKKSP

| Substance | relative proteolysis (Cy7 signal after streptavidin depletion of uncleaved peptide) [1] | proteolysis (fluorescence dequenching) [2] | relative proteolysis (Cy7 signal after streptavidin depletion of uncleaved peptide) [3] | proteolysis (fluorescence dequenching) [4] | also measured |
| --- | --- | --- | --- | --- | --- |
| recombinant MMP9 | responded primarily to MMP2 and MMP9 | marked reduction in proteolysis | responded primarily to MMP2 and MMP9 | significantly cleaved by MMP13, 7, 1, and 9 | catalytic efficiency (Michaelis-Menten fit) [4]: catalytic efficiencies>10^3 M^-1 s^-1 and 10^4 M^-1 s^-1, respectively |
| recombinant MMP13 | – | marked reduction in proteolysis | – | significantly cleaved by MMP13, 7, 1, and 9 | fluorescence dequenching measurements of protease cleavage [4]: with MMP13 as the most efficient |
| recombinant thrombin | – | – | – | – | cleavage monitored by fluorescence release [2]: reduced cleavage of the substrate |
| recombinant MMP19 | – | – | – | – | relative proteolysis (Cy7 signal after streptavidin depletion of uncleaved peptide) [5]: cleaved efficiently by MMP7 and MMP19 |
| recombinant MMP2 | responded primarily to MMP2 and MMP9 | – | responded primarily to MMP2 and MMP9 | – | – |
